The values that follow come from US7709240B2, “AMP deaminase originating streptomyces and utilization thereof” (Amano Enzyme Inc., priority 2004, dated 2010).

Where “and” joins values, the source holds several entries; their conditions need not be identical. Equal values may be shown once. Entries after “also recorded” stand apart in the source; their conditions may differ.

The nature of data set [1]: Contaminated phosphatase activity. Type of data set: biochemical. The following applies: 37° C., pH 5.6. As for the experimental part:
To 1.5 ml of solution obtained by mixing 0.025M 5′IMP-2Na and 0.036M barbital sodium-hydrochloric acid buffer solution (pH 5.6) at the ratio of 1:2, 0.5 ml of sample solution was added so as to obtain a reaction solution, which was reacted at 37° C. for 30 minutes. After the reaction was completed, 200 μl of the solution was taken out, and 5 ml of 6% perchloric acid solution was added so as to stop the reaction. Amidol solution (0.05M, 0.25 ml) was added and mixed, followed by adding and mixing 0.25 ml of 0.067 M ammonium molybdate solution, and further adding and mixing 0.25 ml of water, which was allowed to stand in flowing water for 15 minutes. Then, OD265 was measured. A value similarly measured at the reaction time of 0 minute was defined as a blank. Under the above-mentioned conditions, a case where an absorbance difference is reduced by 0.001 during 30 minutes was defined as one unit.
The contaminated phosphatase activities concerning Aspergillus melleus and Streptomyces murinus were measured. In Aspergillus melleus, the contamination activity was observed. On the other hand, in Streptomyces murinus, the phosphatase activity was not observed.

The nature of data set [2]: Feasibility test 1: nuclease and deaminase treatment of yeast lysate carried out independently. The following applies: after nuclease treatment; deaminase at 50° C., pH 6, 5 hours. As for the experimental part: In test 1, similar to the current production method, treatment with nuclease and treatment with deaminase were carried out independently. Specifically, the treatment was carried out by the following procedure and the IMP conversion rate was calculated. Firstly, nuclease “AMANO” G (Amano Enzyme Inc., 0.1% w/w yeast solid) was added to yeast lysate (YL-15, 0.2%) and they were reacted with each other under the conditions at a temperature of 70° C. and pH 5 for 3 hours. Then, “Deamizyme (50,000 u/mg product) (trade name of Amano Enzyme Inc., 0.01 to 0.04% w/w yeast solid)” that is an AMP deaminase agent derived from the test enzyme (Aspergillus melleus), or a crude enzyme solution prepared from Streptomyces murinus was added and reacted with each other under the conditions at a temperature of 50° C. and pH 6 for 5 hours. Then, the reacted product was heat treated, and then subjected to HPLC analysis. Note here that added amount of AMP deaminase derived from Streptomyces murinus was set so that the activity value thereof became the same as that of “Deamizyme (50,000 u/mg product)” (trade name, Amano Enzyme Inc.)

The nature of data set [3]: pH stability of purified enzyme. Type of data set: physicochemical. The following applies: pH from about 6.5 to about 8.0, 30° C. for 30 minutes; treatment at pH 7.0 = reference. As for the experimental part:
Next, pH stability of the enzyme was examined by the following procedure. An enzyme solution (0.15 ml) containing 2.8 μg protein (total amount) was adjusted to pH 3 to 8 by using McIlvaine buffer solution, and to pH 8 to 10 by using Atkins-pantin buffer solution. The solution was then allowed to stand at 30° C. for 30 minutes. Thereafter, the residual activity (percent with respect to the enzyme activity in the case where the treatment was carried out in pH 7.0) was measured. It is shown that in the range of pH from about 6.0 to about 8.5, relatively high activity is maintained, and in the range of pH from about 6.5 to about 8.0, about 80% or more of activity is maintained.

Data set [4] is described as follows: Chromatofocusing (isoelectric point). The format is physicochemical. The following applies: 8.12 = main fraction; at least two isozymes. As for the experimental part: In order to obtain an isoelectric point of AMP deaminase derived from Streptomyces murinus obtained by the above-mentioned method, chromatofocusing was carried out. By using MonoP column (Pharmacia), a starting buffer (Start Buffer) and an elution buffer (Poly buffer 96) were adjusted to pH 4.0 with 0.075M Tris acetate buffer (pH9.3) and with hydrochloric acid, respectively. The final amount was made to 100 ml. Furthermore, Pre-gradient with 3 ml, gradient elution with 30 ml and elution with 30 ml were carried out. From the results, it was thought that at least two isozymes were present (pI 8.12, 7.02), but the isoelectric point of main fraction was 8.12. Various properties, including the isoelectric point obtained from the above-mentioned results, of AMP deaminase derived from Streptomyces murinus, are shown in FIG. 11.

Data set [5] can be described thus: IMP conversion reaction (HPLC). The following applies: 1.1% AMP solution, pH 7.0, 50° C., 4 hours. Type of data set: biochemical. As for the experimental part:
IMP conversion rate by HPLC of AMP deaminase produced by Aspergillus melleus and Streptomyces murinus was examined. Specifically, by using 1/15M phosphate buffer solution (pH 7.0), 1.1% AMP solution was prepared. To 5 ml of 1.1% AMP solution, 0.5 ml of enzyme solution was added and reacted at 50° C. for 4 hours. Thereafter, heat treatment at 100° C. was carried out for 10 minutes, filter filtration (0.45 μm) was carried out, and HPLC analysis was carried out.

B1: AMP deaminase derived from Streptomyces murinus: thermostable AMP deaminase enzyme produced by Streptomyces murinus IFO14802; amino acid sequence SEQ ID NO: 1 (protein, listed as Streptomyces murinus)
chain: APPPRQATAAEARTDAYLRSVKDRPAALRAFFRQLPKGGDLHNHLSGAVNTDYLIELAAEDGLCIDATMTAVPSPCGPGTRPAADARTDRAFHDAIVRAWSMQDFPPDENGHDHFFDTFGKFGEVTWRHRGKLLAQVADTVVANNQSYLETMVTPASDGAKQLADQVGWDADLTALHRKLAAGGKLDKLVADARKEADDGDAEFRATEHCGTAKARPACGLTVRWISQASRGSSPVRVFTQLDLGMRLAEADSRFVAVNLVQPEDWDSSLENYSLQMRMVGYLRTVYPKAHVTLHAGELWPGLVKPEALKFHIAEAVDIAHTQRVGHGVDLVHEDNWQRTARTMAARQIAVEVPFSSNAQILGVKGAEHPFTTYRRYGVPVVLATDDPGVSRIDISHEYQYAAATYGLGYPELKDLARASLQYAFLPGASLWQGNPTAQGYHPVAACRAERPGQPVHSAACRRLLDGSARARLEWRQEAAFAAFERAHARG
As to B1, the contaminated phosphatase activity result in data set [1] is recorded as “not observed; also recorded: not detected”. The “IMP conversion rate compared with AMP deaminase derived from Aspergillus melleus” value in data set [2] is listed as “equivalent”. Moreover, the residual activity in data set [3] is listed as ≥ 80%. In addition, in data set [4], the “isoelectric point (pI)” value is 8.12 and 7.02. For the same molecule, in data set [5], the “IMP conversion rate compared with AMP deaminase produced by Aspergillus melleus” value was “the same level” and the “ratio of the side product (hypoxanthine) compared with Aspergillus melleus” value is “smaller”.
